Laboratory results taken from the supplement of paper PMC12855868.

B1: library; numbered along this chain (parent)
chain: MAAAGGARLLRAASAVLGGPAGRWLHHAGSRAGSSGLLRNRGPGGSAEASRSLSVSARARSSSEDKITVHFINRDGETLTTKGKVGDSLLDVVVENNLDIDGFGACEGTLACSTCHLIFEDHIYEKLDAITDEENDMLDLAYGLTDRSRLGCQICLTKSMDNMTVRVPETVADARQSIDVGKTS

Variants of: B1
Assay: scaled log2 fold change in cell abundance, elesclomol vs control (0 = silent mean, 1 = nonsense mean) (scaled log2 ratio); higher = higher viability under elesclomol (loss of FDX1 cuproptosis function)
Settings: with HEK293T FDX1 KO; elesclomol 40 nM; glucose 10 mM; 11 days
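Also: variant abundance is its share of total variant reads in each endpoint sample, from next-generation sequencing of the integrated ORF PCR-amplified out of genomic DNA.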

First: S50F
Second: S50V
The “scaled log2 fold change” value of the first is lower: -0.396 for the first, -0.0587 for the second.

Compared with G76W, P20V is higher in “scaled log2 fold change” value: -0.575 for the first, 0.328 for the second.

P20R and R31D are within 0.2 log units of each other in “scaled log2 fold change” value: 0.465 for the first, 0.39 for the second.

Compared with R31L, V55A is higher in “scaled log2 fold change” value: -0.385 for the first, -0.0113 for the second.

First: E107S
Second: S14N
The “scaled log2 fold change” value of the first is lower: -0.279 for the first, 0.029 for the second.

Compared with S30P, S30W is higher in “scaled log2 fold change” value: -0.513 for the first, -0.103 for the second.

Compared with N40G, N40H is lower in “scaled log2 fold change” value: -0.0433 for the first, -0.707 for the second.

Compared with N40A, G29L is lower in “scaled log2 fold change” value: 1.14 for the first, 0.376 for the second.

First: G29Q
Second: G29N
The “scaled log2 fold change” value of the first is lower: 0.00954 for the first, 1.01 for the second.

Going from G29H to G22D, the “scaled log2 fold change” value rises from -0.53 to 0.368.

Going from G22S to A129N, the “scaled log2 fold change” value falls from 1.21 to 0.865.

Going from R51I to A57P, the “scaled log2 fold change” value falls from 0.315 to -0.118.

First: A15R
Second: W24Y
The “scaled log2 fold change” value of the first is lower: -0.519 for the first, 0.0942 for the second.

W24S and W24D are within 0.2 log units of each other in “scaled log2 fold change” value: -0.637 for the first, -0.665 for the second.

First: S62V
Second: S62P
The “scaled log2 fold change” value of the first is lower: -0.946 for the first, 0.152 for the second.

First: E125I
Second: T183G
The “scaled log2 fold change” value of the first is higher: -0.618 for the first, -1.07 for the second.

First: T183M
Second: T183A
The “scaled log2 fold change” value of the first is higher: -0.119 for the first, -0.711 for the second.

T183E and T183V are within 0.2 log units of each other in “scaled log2 fold change” value: -0.187 for the first, -0.191 for the second.

Going from T183R to T183Y, the “scaled log2 fold change” value rises from -0.367 to 0.0186.

Compared with T183L, T183C is lower in “scaled log2 fold change” value: -0.253 for the first, -0.686 for the second.

Going from T183H to T183D, the “scaled log2 fold change” value rises from -0.49 to -0.222.

Compared with T183I, T183S is lower in “scaled log2 fold change” value: -0.426 for the first, -0.869 for the second.

First: T183W
Second: T183K
The “scaled log2 fold change” value of the first is higher: 0.214 for the first, -0.436 for the second.

Compared with T183F, S184T is lower in “scaled log2 fold change” value: -0.199 for the first, -0.512 for the second.

Compared with S184N, S184V is higher in “scaled log2 fold change” value: 0.0759 for the first, 0.648 for the second.

S184D and S184W are within 0.2 log units of each other in “scaled log2 fold change” value: 0.845 for the first, 0.713 for the second.

Going from S184Q to S184A, the “scaled log2 fold change” value rises from -0.0365 to 0.908.

First: S184R
Second: S184H
The “scaled log2 fold change” value of the first is lower: -0.427 for the first, -0.0277 for the second.

Compared with S184G, S184Y is higher in “scaled log2 fold change” value: -0.25 for the first, 0.879 for the second.

S184L and S184M are within 0.2 log units of each other in “scaled log2 fold change” value: 0.57 for the first, 0.661 for the second.

S184I and S184F are within 0.2 log units of each other in “scaled log2 fold change” value: -0.259 for the first, -0.432 for the second.

Compared with S184K, S184P is higher in “scaled log2 fold change” value: 0.0933 for the first, 0.83 for the second.

Compared with S184E, G33D is lower in “scaled log2 fold change” value: 1.03 for the first, 0.213 for the second.

First: T157W
Second: T78A
The “scaled log2 fold change” value of the first is higher: -0.456 for the first, -1.2 for the second.

Going from T78F to D75P, the “scaled log2 fold change” value rises from -0.765 to -0.0681.

Compared with D75G, L25F is higher in “scaled log2 fold change” value: 0.0557 for the first, 0.845 for the second.

First: L9A
Second: S61A
The “scaled log2 fold change” value of the first is lower: 0.241 for the first, 0.782 for the second.

S61T and S61L are within 0.2 log units of each other in “scaled log2 fold change” value: 0.136 for the first, 0.17 for the second.

First: S61H
Second: L127C
The “scaled log2 fold change” value of the first is higher: 1.68 for the first, 0.0207 for the second.

First: L37N
Second: L37A
The “scaled log2 fold change” value of the first is lower: -0.668 for the first, 0.765 for the second.

Going from L37I to L89I, the “scaled log2 fold change” value falls from 1.2 to -0.0352.

First: S88P
Second: S88M
The “scaled log2 fold change” value of the first is lower: -0.895 for the first, 0.379 for the second.

Compared with S88K, S88D is higher in “scaled log2 fold change” value: -0.315 for the first, 0.11 for the second.

First: S88H
Second: K182E
The “scaled log2 fold change” value of the first is higher: -0.0956 for the first, -1.19 for the second.

Going from K182H to K182M, the “scaled log2 fold change” value rises from -0.354 to -0.0296.

Going from K182V to K182W, the “scaled log2 fold change” value rises from 0.182 to 0.909.

Compared with K182Y, K182L is higher in “scaled log2 fold change” value: -0.398 for the first, 0.171 for the second.

K182T and K182Q are within 0.2 log units of each other in “scaled log2 fold change” value: -0.0291 for the first, -0.145 for the second.

Going from K182I to K182S, the “scaled log2 fold change” value falls from 0.677 to -0.584.

K182F and K182R are within 0.2 log units of each other in “scaled log2 fold change” value: -0.11 for the first, 0.0141 for the second.

First: K182A
Second: K182C
The “scaled log2 fold change” value of the first is lower: -0.691 for the first, -0.334 for the second.

Going from K182N to G181P, the “scaled log2 fold change” value falls from 0.75 to -0.548.

G181F and G181W are within 0.2 log units of each other in “scaled log2 fold change” value: 0.167 for the first, 0.364 for the second.

Going from G181E to G181S, the “scaled log2 fold change” value rises from -0.4 to 0.902.

G181A and G181Q are within 0.2 log units of each other in “scaled log2 fold change” value: -0.352 for the first, -0.21 for the second.

Going from G181T to G181Y, the “scaled log2 fold change” value falls from -0.186 to -0.568.

G181D and G181C are within 0.2 log units of each other in “scaled log2 fold change” value: -0.438 for the first, -0.501 for the second.

Going from G181K to G181R, the “scaled log2 fold change” value rises from -0.659 to 0.814.

Compared with G181I, G181M is higher in “scaled log2 fold change” value: 0.0446 for the first, 0.389 for the second.

Going from G181H to H26I, the “scaled log2 fold change” value rises from 0.112 to 0.477.

First: H26V
Second: A4P
The “scaled log2 fold change” value of the first is higher: 0.418 for the first, -0.59 for the second.

First: R60D
Second: V180W
The “scaled log2 fold change” value of the first is lower: 0.0454 for the first, 0.322 for the second.

First: V180Y
Second: V16H
The “scaled log2 fold change” value of the first is higher: 0.873 for the first, 0.416 for the second.

A21W was tested, and the “scaled log2 fold change” value was 0.402.

Same assay, conditions: with ABC1 FDX1 KO; elesclomol 5 nM; glucose 10 mM; 14 days

Going from T183G to T183M, the “scaled log2 fold change” value falls from 0.353 to -0.197.

Compared with T183A, T183E is lower in “scaled log2 fold change” value: -0.44 for the first, -1.02 for the second.

T183V and T183R are within 0.2 log units of each other in “scaled log2 fold change” value: 0.00691 for the first, 0.102 for the second.

Going from T183Y to T183L, the “scaled log2 fold change” value rises from -0.296 to -0.0402.

Going from T183C to T183H, the “scaled log2 fold change” value falls from 0.0469 to -0.16.

T183D and T183I are within 0.2 log units of each other in “scaled log2 fold change” value: 0.0532 for the first, 0.0224 for the second.

Going from T183S to T183N, the “scaled log2 fold change” value falls from 0.172 to -0.0614.

Going from T183P to T183W, the “scaled log2 fold change” value falls from 0.166 to -0.19.

Going from T183K to T183F, the “scaled log2 fold change” value rises from -0.157 to 0.0658.

T183Q and S184T are within 0.2 log units of each other in “scaled log2 fold change” value: -0.0766 for the first, -0.0663 for the second.

Compared with S184N, S184V is higher in “scaled log2 fold change” value: 0.136 for the first, 0.362 for the second.

First: S184D
Second: S184W
The “scaled log2 fold change” value of the first is lower: -0.159 for the first, 0.0507 for the second.

S184Q and S184A are within 0.2 log units of each other in “scaled log2 fold change” value: -0.0164 for the first, 0.168 for the second.

S184R and S184H are within 0.2 log units of each other in “scaled log2 fold change” value: 0.0521 for the first, 0.0751 for the second.

Compared with S184G, S184Y is lower in “scaled log2 fold change” value: 0.207 for the first, -0.125 for the second.

Going from S184L to S184M, the “scaled log2 fold change” value rises from -0.241 to 0.00413.

S184C and S184I are within 0.2 log units of each other in “scaled log2 fold change” value: 0.145 for the first, 0.126 for the second.

Compared with S184F, S184K is lower in “scaled log2 fold change” value: 0.3 for the first, -0.0652 for the second.

First: S184P
Second: S184E
The “scaled log2 fold change” value of the first is higher: 0.326 for the first, -0.0286 for the second.

K182E and K182H are within 0.2 log units of each other in “scaled log2 fold change” value: -0.363 for the first, -0.181 for the second.

Compared with K182P, K182M is lower in “scaled log2 fold change” value: 0.201 for the first, -0.000782 for the second.

First: K182V
Second: K182W
The “scaled log2 fold change” value of the first is lower: -0.251 for the first, 0.0276 for the second.

K182D and K182Y are within 0.2 log units of each other in “scaled log2 fold change” value: 0.0891 for the first, 0.0751 for the second.

First: K182L
Second: K182T
The “scaled log2 fold change” value of the first is lower: -0.0698 for the first, 0.134 for the second.

Compared with K182Q, K182I is lower in “scaled log2 fold change” value: 0.399 for the first, 0.114 for the second.

K182S and K182F are within 0.2 log units of each other in “scaled log2 fold change” value: 0.0077 for the first, 0.103 for the second.

Going from K182G to K182R, the “scaled log2 fold change” value falls from 0.289 to -0.345.

K182A and K182C are within 0.2 log units of each other in “scaled log2 fold change” value: 0.0976 for the first, -0.0381 for the second.

First: K182N
Second: G181P
The “scaled log2 fold change” value of the first is higher: 0.127 for the first, -0.164 for the second.

G181F and G181W are within 0.2 log units of each other in “scaled log2 fold change” value: 0.316 for the first, 0.226 for the second.

Going from G181E to G181S, the “scaled log2 fold change” value rises from -0.223 to 0.113.

Going from G181N to G181A, the “scaled log2 fold change” value falls from 0.125 to -0.623.

First: G181Q
Second: G181T
The “scaled log2 fold change” value of the first is lower: -0.419 for the first, 0.225 for the second.

G181Y and G181D are within 0.2 log units of each other in “scaled log2 fold change” value: 0.093 for the first, 0.217 for the second.

Going from G181V to G181C, the “scaled log2 fold change” value rises from -0.396 to -0.0449.

Going from G181K to G181R, the “scaled log2 fold change” value falls from 0.227 to -0.0624.

Going from G181I to G181M, the “scaled log2 fold change” value falls from 0.268 to -1.35.

Compared with G181L, G181H is lower in “scaled log2 fold change” value: 0.185 for the first, -0.157 for the second.

V180W and V180Y are within 0.2 log units of each other in “scaled log2 fold change” value: -0.111 for the first, -0.084 for the second.
